Experiments:
[1] = target: human FcγRIIIa/158V on Jurkat cells (human)
[2] = target: human FcγRIIa/131H on Jurkat cells (human) (UniProt P12318)
UniProt P12318, sequence (P12318 34-317): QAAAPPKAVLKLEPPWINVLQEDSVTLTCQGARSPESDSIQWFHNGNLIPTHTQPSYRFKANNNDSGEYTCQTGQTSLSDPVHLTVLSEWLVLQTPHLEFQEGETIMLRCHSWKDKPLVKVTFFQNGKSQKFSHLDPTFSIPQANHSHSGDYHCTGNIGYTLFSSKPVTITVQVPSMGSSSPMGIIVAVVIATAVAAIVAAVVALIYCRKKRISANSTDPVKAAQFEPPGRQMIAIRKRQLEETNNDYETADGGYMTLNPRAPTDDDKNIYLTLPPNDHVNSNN

human FcγRIIIa/158V on Jurkat cells (human), sequence (P08637 17-208): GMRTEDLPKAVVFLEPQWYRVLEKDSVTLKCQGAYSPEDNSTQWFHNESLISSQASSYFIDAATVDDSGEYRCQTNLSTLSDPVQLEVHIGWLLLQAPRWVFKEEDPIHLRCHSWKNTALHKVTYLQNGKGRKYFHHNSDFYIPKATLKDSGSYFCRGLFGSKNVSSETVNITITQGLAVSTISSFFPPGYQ

| Substance | EC50 of luciferase activity of Jurkat/FcγRIIIa/NFAT-Luc cells co-cultured with Daudi cells and serially diluted mAb [1] [µg/mL] | EC50 of luciferase activity of Jurkat/FcγRIIa/NFAT-Luc cells co-cultured with Daudi cells and serially diluted mAb [2] [µg/mL] |
| --- | --- | --- |
| rituximab (wild-type, anti-CD20 mAb, IgG1) (antibody) | 0.034 |  |
| rituximab G236A/S239D/I332E variant (antibody) | 0.016 | 0.057 |

— PMC3994145
